In this data set the target is T1, C-reactive protein (CRP) (UniProt P02741 19-224).
T1 sequence: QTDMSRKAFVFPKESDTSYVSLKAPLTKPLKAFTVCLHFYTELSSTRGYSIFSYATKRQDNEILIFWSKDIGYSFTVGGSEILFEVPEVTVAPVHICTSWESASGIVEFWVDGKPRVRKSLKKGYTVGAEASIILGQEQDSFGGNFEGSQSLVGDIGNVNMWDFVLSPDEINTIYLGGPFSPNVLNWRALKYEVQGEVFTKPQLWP
Description: fluorescence recovery from graphene oxide.

B1: FAM-labeled CRP aptamer (ssDNA)
DNA: GGCAGGAAGACAAACATATAATTGAGATCGTTTGATGACTTTGTAAGAGTGTGGAATGGTCTGTGGTGCTGT
With B1, the binding result was “binds”.

Source of the values: PMC12575793.
